Measurements published in article PMC9224930, “VH3-53/66-Class RBD-Specific Human Monoclonal Antibody iB20 Displays Cross-Neutralizing Activity against Emerging SARS-CoV-2 Lineages” (Journal of Personalized Medicine, 2022).

Biological target: T1, SARS-CoV-2 Wuhan-1 receptor-binding domain (RBD) (SARS-CoV-2 (Wuhan-1), UniProt P0DTC2)
T1 construct: also called Wuhan RBD; w.t; RBD
Test: BLI; pairwise competition on NTA biosensors (Octet RED96): Wuhan RBD immobilised via its 6xHis tag (200 s), first antibody added (600 s), then the second (600 s)
Settings: both partners purified

B1: nAb CV30 (antibody, V domains shown)
VH: QVQLVESGGGLIQPGGSLRLSCAASGVIVSSNYMSWVRQAPGKGLEWVSVIYSGGSTYYADSVKGRFTISRDNSKNTLYLQMNSLRAEDTAVYYCARDLDVSGGMDVWGQGTTVTVSS
VL: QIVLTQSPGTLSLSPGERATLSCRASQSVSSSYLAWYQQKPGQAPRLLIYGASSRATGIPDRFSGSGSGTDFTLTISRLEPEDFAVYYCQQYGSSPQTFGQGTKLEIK
notes: also called recombinant CV30
- binding result: binds
